Reference: US20110113509, “RATIONALLY-DESIGNED MEGANUCLEASES FOR MAIZE GENOME ENGINEERING” (PRECISION BIOSCIENCES, INC., published 2011)
Numbering of substitutions follows the chain as printed.

Experiments:
LIG-34+ meganuclease = target: T1, LIG-34+ meganuclease (Artificial Sequence (derived from …)); assay: cleavage_in_vitro; C50, enzyme to cut 50% of 10 nM linearized pUC19 substrate in 1 h; 37 C, SA buffer pH 8.0, 100 mM NaCl, 5 mM MgCl2, 5 mM EDTA; settings: tags: C-terminal 6xHis; N-terminal SV40 NLS; inferred)
T1 chain: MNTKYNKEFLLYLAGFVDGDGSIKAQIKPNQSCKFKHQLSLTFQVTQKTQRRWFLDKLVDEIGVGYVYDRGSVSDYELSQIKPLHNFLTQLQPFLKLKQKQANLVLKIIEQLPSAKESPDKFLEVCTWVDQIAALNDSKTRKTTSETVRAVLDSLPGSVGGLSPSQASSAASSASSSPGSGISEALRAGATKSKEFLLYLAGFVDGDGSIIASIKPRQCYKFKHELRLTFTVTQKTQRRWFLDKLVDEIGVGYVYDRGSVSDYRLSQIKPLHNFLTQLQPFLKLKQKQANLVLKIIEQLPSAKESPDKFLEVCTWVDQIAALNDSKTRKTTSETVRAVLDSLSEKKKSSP
Experimental: (§1) The LIG-34 meganucleases were assayed for in vitro activity by incubation with linear, double-stranded DNA substrates containing the meganuclease recognition sequence. Synthetic oligonucleotides corresponding to both sense and antisense strands of the LIG-34 recognition site (SEQ ID NO: 2, SEQ ID NO: 3) were annealed and cloned into the SmaI site of the pUC19 plasmid by blunt-end ligation. The plasmid substrate was linearized with XmnI concurrently with the meganuclease digest. The enzyme digests contained 5 μl of 0.05 μM DNA substrate, 5 μl of meganuclease at varying concentrations (diluted in SA buffer, see below), 14.5 μl SA buffer, and 0.5 μl XmnI. LIG-34 enzyme concentration was varied from 5-400 nM (final concentration). Digests were incubated at 37° C. for 1 hour. Digests were stopped by adding 0.3 mg/ml Proteinase K and 0.5% SDS, and incubated for one hour at 37° C. Digests were analyzed on 1.5% agarose and visualized by ethidium bromide staining.
(§2) Digestion of the linearized plasmid with LIG34, LIG34+ or LIG34++ meganuclease produced two bands on the gel of the sizes corresponding to a simple cut at the LIG-34 site. All of the LIG-34 meganucleases efficiently cut the plasmid substrate harboring the LIG-34 recognition site. […] Thus, while all three enzymes efficiently cleave the LIG-34 site sequence, they do so with varying activity levels (LIG-34<LIG-34+<LIG-34++).

LIG-34 meganuclease = target: T2, LIG-34 meganuclease (Artificial Sequence (derived from …)); assay: as above; settings: tags: C-terminal 6xHis; N-terminal SV40 NLS; inferred)
T2 chain: T1 chain with T229E
Experimental: as §1, §2

B1: LIG-34 recognition site (dsDNA)
DNA 1: TACGCGTACGTGTGAGGTATAT
DNA 2: ATATACCTCACACGTACGCGTA
EC50 (LIG-34+ meganuclease): ~13 nM
EC50 (LIG-34 meganuclease): ~16 nM
